{"source": "patent US20240301386A1", "about": "“Soluble Guanylyl Cyclase (GC1) Mimetic Polypeptides and Methods of Use Thereof” (Rutgers, the State University of New Jersey, priority 2023, published 2024)", "molecules": {"B1": {"name": "Reduced Trx1 (rTrx1), recombinant human Trx1 treated with 10 mM DTT (protein)", "chain": "MVKQIESKTAFQEALDAAGDKLVVVDFSATWCGPCKMIKPFFHSLSEKYSNVIFLEVDVDDCQDVASECEVKCMPTFQFFKKGQKVGEFSGANKEKLEATINELV"}, "B2": {"name": "Thioredoxin 1 (Trx1) protein, purified (protein)", "chain": "B1 chain"}, "B3": {"name": "Reduced GC1 (rGC1), recombinant human GC1 treated with 10 mM DTT (protein)", "chain 1": "MFCTKLKDLKITGECPFSLLAPGQVPNESSEEAAGSSESCKATMPICQDIPEKNIQESLPQRKTSRSRVYLHTLAESICKLIFPEFERLNVALQRTLAKHKIKESRKSLEREDFEKTIAEQAVAAGVPVEVIKESLGEEVFKICYEEDENILGVVGGTLKDFLNSFSTLLKQSSHCQEAGKRGRLEDASILCLDKEDDFLHVYYFFPKRTTSLILPGIIKAAAHVLYETEVEVSLMPPCFHNDCSEFVNQPYLLYSVHMKSTKPSLSPSKPQSSLVIPTSLFCKTFPFHFMFDKDMTILQFGNGIRRLMNRRDFQGKPNFEEYFEILTPKINQTFSGIMTMLNMQFVVRVRRWDNSVKKSSRVMDLKGQMIYIVESSAILFLGSPCVDRLEDFTGRGLYLSDIPIHNALRDVVLIGEQARAQDGLKKRLGKLKATLEQAHQALEEEKKKTVDLLCSIFPCEVAQQLWQGQVVQAKKFSNVTMLFSDIVGFTAICSQCSPLQVITMLNALYTRFDQQCGELDVYKVETIGDAYCVAGGLHKESDTHAVQIALMAVKMMELSDEVMSPHGEPIKMRIGLHSGSVFAGVVGVKMPRYCLFGNNVTLANKFESCSVPRKINVSPTTYRLLKDCPGFVFTPRSREELPPNFPSEIPGICHFLDAYQQGTNSKPCFQKKDVEDGNANFLGKASGID", "chain 2": "MYGFVNHALELLVIRNYGPEVWEDIKKEAQLDEEGQFLVRIIYDDSKTYDLVAAASKVLNLNAGEILQMFGKMFFVFCQESGYDTILRVLGSNVREFLQNLDALHDHLATIYPGMRAPSFRCTDAEKGKGLILHYYSEREGLQDIVIGIIKTVAQQIHGTEIDMKVIQQRNEECDHTQFLIEEKESKEEDFYEDLDRFEENGTQESRISPYTFCKAFPFHIIFDRDLVVTQCGNAIYRVLPQLQPGNCSLLSVFSLVRPHIDISFHGILSHINTVFVLRSKEGLLDVEKLECEDELTGTEISCLRLKGQMIYLPEADSILFLCSPSVMNLDDLTRRGLYLSDIPLHDATRDLVLLGEQFREEYKLTQELEILTDRLQLTLRALEDEKKKTDTLLYSVLPPSVANELRHKRPVPAKRYDNVTILFSGIVGFNAFCSKHASGEGAMKIVNLLNDLYTRFDTLTDSRKNPFVYKVETVGDKYMTVSGLPEPCIHHARSICHLALDMMEIAGQVQVDGESVQITIGIHTGEVVTGVIGQRMPRYCLFGNTVNLTSRTETTGEKGKINVSEYTYRCLMSPENSDPQFHLEHRGPVSMKGKKEPMQVWFLSRKNTGTEETKQDDD"}}, "key": {"caspase-3": {"test_system": "caspase-3", "assay": "Caspase-3 activity assay in Jurkat T cells ± etoposide", "assay_type": "cell-based, human", "conditions": "etoposide 8 μM 16 h compared to samples not treated with ETO", "protocol": "The cells in suspension in 2 ml serum-free medium were treated with either 70% DMSO (20 μL, 0.7% final), scramble peptide, or inhibitory peptide at a final concentration of 10 μM and incubated at 37° C. for 1 h. After incubation, the cells were washed twice and incubated in complete medium at 37° C. for 8 h. The cells were then treated with (or without) etoposide (ETO) at 8 μM final at 37° C. for 16 h.\nFor Caspase-3 activity assays: After 16 h incubation, the cells were washed twice with cold PBS and lysed in the supplier's 1× lysis buffer (at 10 μL per 10^6 cells). After 15 min incubation on ice, the lysates were centrifuged at 16,000 g for 15 min at 4° C. and the supernatant collected. Caspase-3 activity was measured following the supplier's instructions (CASP3C-1KT, Sigma) after 2 and 3 h incubation.\nWhether these observations correlated with an increased caspase-3 activity was next assessed with a colorimetric assay based on cleavage of the substrate […], under the same above conditions. […] It was concluded that disrupting the SNO-GC1→oTrx1→procaspase-3 transnitrosation cascade using a peptide inhibitory of the GC1/Trx1 interaction promotes Jurkat T-cells apoptosis."}, "Jurkat T cells": {"test_system": "Jurkat T cells", "assay": "Biotin-avidin switch assays of S-nitrosation in Jurkat T cells ± etoposide", "assay_type": "cell-based, human", "protocol": "Jurkat cells were cultured in a 6-well plate at the density of 0.25×10^6/ml in complete medium RPMI 1640 from Corning (10-040-CV) supplemented with 10% FBS and Pen-Strep and incubated at 37° C. with 5% CO2 for 24 h. The cells were collected by centrifuging at 1000 g for 5 min, washed twice with serum-free medium, and re-suspended with 2 ml serum-free medium prior to peptide treatment.\nFree thiols of proteins were blocked in lysis-blocking buffer containing 50 mM Tris, pH 7.5, 150 mM NaCl, 1% Triton X-100, 1 mM EDTA, 2% SDS, 0.1 mM neocuproine, 0.2 mM PSMF, and 40 mM N-ethylmaleimide (NEM) at 50° C. for 30 min in the dark. Excess NEM was removed using cold acetone precipitation. The protein pellets were generated by centrifugating at 14000 g for 10 min at 4° C. and washed 3 times using cold acetone. […]\nFor biotin-avidin switch assays: After 16 h incubation, the cells were washed twice with cold PBS and lysed in lysis-blocking buffer containing 50 mM Tris, pH 7.5, 150 mM NaCl, 1% Triton X-100, 1 mM EDTA, 2% SDS, 0.1 mM neocuproine, and 40 mM NEM supplemented with PMSF and protease inhibitor cocktail. The protein concentration was measured using the Bradford method. 50 μg of each lysate was analyzed by Western blot as starting material (inputs) and 200 μg proteins of each sample were subjected to the biotin switch and avidin assays, as described elsewhere herein. […]"}, "[1]": {"target": "T1, Oxidized GC1 (oGC1), recombinant human GC1 treated with 100 µM diamide, Q02153", "T1 chain 1": "B3 chain 1", "T1 chain 2": "B3 chain 2"}, "[2]": {"target": "T2, Purified recombinant human soluble guanylyl cyclase (GC1), Q02153", "T2 chain 1": "B3 chain 1", "T2 chain 2": "B3 chain 2"}, "[3]": {"target": "T3, Oxidized Trx1 (oTrx1), recombinant human Trx1 treated with 100 µM diamide, P10599", "T3 chain": "B1 chain"}}}
{"molecule": "COc1cc([C@@H]2c3cc4c(cc3[C@@H](O[C@@H]3O[C@@H]5CO[C@@H](C)O[C@H]5[C@H](O)[C@H]3O)[C@H]3COC(=O)[C@H]23)OCO4)cc(OC)c1O", "note": "[Etoposide]", "values": [{"measurement": "caspase-3 activity in Jurkat cells treated with ETO", "setting": "caspase-3", "value": "significant increase"}, {"measurement": "global levels of S-nitrosation in Jurkat T cells", "setting": "Jurkat T cells; peptide 10 μM 1 h, etoposide 8 μM 16 h (FIG. 8A left panel)", "value": "did not affect"}, {"measurement": "SNO-procaspase-3 level in Jurkat T cells", "setting": "Jurkat T cells; peptide 10 μM 1 h ± etoposide 8 μM 16 h, avidin purified, compared to DMSO and scramble peptide (FIG. 8A right panel)", "value": "slightly reduced"}]}
{"molecule": "B1", "values": [{"measurement": "conversion of oGC1 multimers into monomers (non-reducing gel, Western blot)", "setting": "[1]", "value": "rTrx1 converted oGC1 multimers into monomers to some extent"}, {"measurement": "conversion of oGC1 multimers into monomers in the presence of 125 µM scramble peptide", "setting": "[1]", "value": "the reducing effect of Trx1 was maintained with the scramble peptide as control"}]}
{"molecule": "B2", "values": [{"measurement": "NO-stimulated GC1 activity (1 µM DEA-NO), purified GC1 + Trx1 1:7", "setting": "[2]", "value": "FIG. 3A first confirmed the increased NO-stimulated activity of GC1 by Trx1"}, {"measurement": "NO-stimulated GC1 activity, purified GC1 + Trx1 in the presence of peptide 1 (25 µM)", "setting": "[2]", "value": "Trx1-dependent increase of NO-stimulated GC1 activity was similarly blunted by the 3 peptides"}, {"measurement": "NO-stimulated GC1 activity, purified GC1 + Trx1 in the presence of peptide 2 (25 µM)", "setting": "[2]", "value": "Trx1-dependent increase of NO-stimulated GC1 activity was similarly blunted by the 3 peptides"}, {"measurement": "NO-stimulated GC1 activity, purified GC1 + Trx1 in the presence of peptide 3 (25 µM)", "setting": "[2]", "value": "Trx1-dependent increase of NO-stimulated GC1 activity was similarly blunted by the 3 peptides"}, {"measurement": "NO-stimulated GC1 activity, purified GC1 + Trx1 in the presence of the scramble peptide (25 µM)", "setting": "[2]", "value": "the scramble peptide had no effect"}]}
{"molecule": "B3", "values": [{"measurement": "conversion of oTrx1 dimers into monomers (non-reducing gel, Western blot)", "setting": "[3]", "value": "rGC1 converted most of oTrx1 dimer into Trx1 monomers"}, {"measurement": "conversion of oTrx1 dimers into monomers in the presence of 125 µM scramble peptide", "setting": "[3]", "value": "the rGC1-dependent conversation of Trx1 from dimers to monomers was maintained in the presence of the scramble peptide"}]}
